Key:
[1] = molecular target: 59 kDa bovine lung CaM-PDE (expression product of p59KCAMPDE-2 cDNA) (bovine) (UniProt P14100); assay: cell-based or functional assay
[2] = molecular target: 63 kDa bovine brain CaM-PDE (expression product of p12.3a cDNA) (bovine) (UniProt Q01061); assay: cell-based or functional assay
63 kDa bovine brain CaM-PDE (expression product of p12.3a cDNA) (bovine), sequence (Q01061 whole entry): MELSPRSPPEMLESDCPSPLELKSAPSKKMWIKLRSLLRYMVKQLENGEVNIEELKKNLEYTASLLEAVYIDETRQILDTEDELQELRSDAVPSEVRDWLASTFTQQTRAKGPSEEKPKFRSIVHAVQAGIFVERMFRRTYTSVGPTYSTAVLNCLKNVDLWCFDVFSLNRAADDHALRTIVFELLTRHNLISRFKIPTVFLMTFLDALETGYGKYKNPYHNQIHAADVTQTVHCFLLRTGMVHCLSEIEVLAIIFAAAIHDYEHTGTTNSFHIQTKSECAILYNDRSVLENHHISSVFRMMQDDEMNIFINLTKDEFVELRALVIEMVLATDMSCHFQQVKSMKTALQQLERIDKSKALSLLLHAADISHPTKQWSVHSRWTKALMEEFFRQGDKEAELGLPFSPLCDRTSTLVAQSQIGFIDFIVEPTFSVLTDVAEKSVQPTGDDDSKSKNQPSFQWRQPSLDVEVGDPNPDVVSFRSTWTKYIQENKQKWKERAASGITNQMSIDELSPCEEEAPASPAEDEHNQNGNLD

59 kDa bovine lung CaM-PDE (expression product of p59KCAMPDE-2 cDNA) (bovine), sequence (P14100 other isoform, or with tags, fused parts or gaps limits assumed): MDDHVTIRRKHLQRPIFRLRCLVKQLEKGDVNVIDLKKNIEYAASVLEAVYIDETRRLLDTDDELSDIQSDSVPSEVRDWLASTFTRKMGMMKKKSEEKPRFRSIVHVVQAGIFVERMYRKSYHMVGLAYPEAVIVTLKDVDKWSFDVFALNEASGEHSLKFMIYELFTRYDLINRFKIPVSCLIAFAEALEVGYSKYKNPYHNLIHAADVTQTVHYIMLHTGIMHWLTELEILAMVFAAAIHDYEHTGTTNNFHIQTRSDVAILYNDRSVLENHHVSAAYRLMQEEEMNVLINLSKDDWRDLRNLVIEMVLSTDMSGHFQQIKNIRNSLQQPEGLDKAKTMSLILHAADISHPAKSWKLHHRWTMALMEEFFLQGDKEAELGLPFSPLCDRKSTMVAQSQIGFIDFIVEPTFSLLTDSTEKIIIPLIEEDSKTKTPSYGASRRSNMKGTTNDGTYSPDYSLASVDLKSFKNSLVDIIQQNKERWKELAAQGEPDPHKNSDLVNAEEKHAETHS

- cAMP hydrolytic activity (extracts of transfected COS-7 cells, 2 uM cAMP) [1]: 4 to 5 fold
- CaM-stimulated cAMP phosphodiesterase activity (homogenates of transfected COS-7 cells) [2]: 15 fold
- CaM-stimulated cGMP phosphodiesterase activity (homogenates of transfected COS-7 cells) [2]: 12 fold
Substance: calmodulin

Source: US7122363
